Source: article PMC10397247

Assays:
[1] = target: T1, 4H3591-AA; test: two-hybrid library CCmax; settings: mean of both orientations;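 note: natural log of median RNA to DNA barcode read ratio; higher means stronger binding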
T1 chain: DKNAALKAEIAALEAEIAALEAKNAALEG

[2] = target: T2, 4H1809-AA; test: two-hybrid library CCmax; settings: mean of both orientations;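 note: natural log of median RNA to DNA barcode read ratio; higher means stronger binding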
T2 chain: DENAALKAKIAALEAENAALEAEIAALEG

[3] = target: T3, 4H3920-AA; test: two-hybrid library CCmax; settings: mean of both orientations;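 note: natural log of median RNA to DNA barcode read ratio; higher means stronger binding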
T3 chain: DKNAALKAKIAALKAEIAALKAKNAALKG

[4] = target: T4, 4H2248-AA; test: two-hybrid library CCmax; settings: mean of both orientations;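 note: natural log of median RNA to DNA barcode read ratio; higher means stronger binding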
T4 chain: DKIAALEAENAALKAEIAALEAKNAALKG

[5] = target: T5, 4H971-AA; test: two-hybrid library CCmax;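 note: natural log of median RNA to DNA barcode read ratio; higher means stronger binding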
T5 chain: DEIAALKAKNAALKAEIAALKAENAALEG

[6] = target: T6, 4H428-AA; test: two-hybrid library CCmax; settings: mean of both orientations;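 note: natural log of median RNA to DNA barcode read ratio; higher means stronger binding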
T6 chain: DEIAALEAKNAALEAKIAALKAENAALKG

[7] = target: T7, 4H3939-AA; test: two-hybrid library CCmax; settings: mean of both orientations
T7 chain: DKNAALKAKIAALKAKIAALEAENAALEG

[8] = target: T8, 4H656-AA; test: two-hybrid library CCmax; settings: mean of both orientations
T8 chain: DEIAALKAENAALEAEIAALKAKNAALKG

[9] = target: T9, 4H2713-AA; test: two-hybrid library CCmax; settings: mean of both orientations
T9 chain: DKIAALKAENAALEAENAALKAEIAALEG

[10] = target: T10, 4H3102-AA; test: two-hybrid library CCmax; settings: mean of both orientations
T10 chain: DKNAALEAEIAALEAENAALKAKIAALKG

[11] = target: T11, 4H2948-AA; test: two-hybrid library CCmax; settings: mean of both orientations
T11 chain: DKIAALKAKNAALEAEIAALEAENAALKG

[12] = target: T12, 4H3709-AA; test: two-hybrid library CCmax; settings: mean of both orientations
T12 chain: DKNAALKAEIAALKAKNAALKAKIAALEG

[13] = target: T13, 4H2283-AA; test: two-hybrid library CCmax; settings: mean of both orientations
T13 chain: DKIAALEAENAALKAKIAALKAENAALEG

[14] = target: T14, 4H3628-AA; test: two-hybrid library CCmax; settings: mean of both orientations
T14 chain: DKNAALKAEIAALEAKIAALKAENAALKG

[15] = target: T15, 4H497-AA; test: two-hybrid library CCmax; settings: mean of both orientations
T15 chain: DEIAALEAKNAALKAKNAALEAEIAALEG

[16] = target: T16, 4H3121-AA; test: two-hybrid library CCmax; settings: mean of both orientations
T16 chain: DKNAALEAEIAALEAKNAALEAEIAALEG

[17] = target: T17, 4H478-AA; test: two-hybrid library CCmax; settings: mean of both orientations
T17 chain: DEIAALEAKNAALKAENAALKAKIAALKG

[18] = target: T18, 4H3066-AA; test: two-hybrid library CCmax; settings: mean of both orientations
T18 chain: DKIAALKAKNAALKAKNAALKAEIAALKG

[19] = target: T19, 4H675-AA; test: two-hybrid library CCmax; settings: mean of both orientations
T19 chain: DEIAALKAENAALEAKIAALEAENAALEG

[20] = target: T20, 4H2991-AA; test: two-hybrid library CCmax; settings: mean of both orientations
T20 chain: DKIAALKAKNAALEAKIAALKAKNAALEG

[21] = target: T21, 4H3666-AA; test: two-hybrid library CCmax; settings: mean of both orientations
T21 chain: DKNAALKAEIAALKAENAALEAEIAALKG

[22] = target: T22, 4H3446-AA; test: two-hybrid library CCmax; settings: mean of both orientations
T22 chain: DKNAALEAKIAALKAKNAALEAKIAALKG

[23] = target: T23, 4H391-AA; test: two-hybrid library CCmax; settings: mean of both orientations
T23 chain: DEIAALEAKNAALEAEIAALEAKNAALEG

[24] = target: T24, 4H2742-AA; test: two-hybrid library CCmax; settings: mean of both orientations
T24 chain: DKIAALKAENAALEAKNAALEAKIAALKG

[25] = target: T25, 4H1854-AA; test: two-hybrid library CCmax; settings: mean of both orientations
T25 chain: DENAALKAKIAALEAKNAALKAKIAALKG

[26] = target: T26, 4H3029-AA; test: two-hybrid library CCmax; settings: mean of both orientations
T26 chain: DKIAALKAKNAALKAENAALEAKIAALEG

[27] = target: T27, 4H189-AA; test: two-hybrid library CCmax; settings: mean of both orientations
T27 chain: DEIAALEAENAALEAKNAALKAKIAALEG

[28] = target: T28, 4H3417-AA; test: two-hybrid library CCmax; settings: mean of both orientations
T28 chain: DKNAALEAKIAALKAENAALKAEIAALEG

[29] = target: T29, 4H2717-bH; test: two-hybrid library CCNG1
T29 chain: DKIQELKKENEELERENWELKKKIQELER

[30] = target: T30, 4H2692-bH; test: two-hybrid library CCNG1
T30 chain: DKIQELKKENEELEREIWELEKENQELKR

[31] = target: T31, 4H3277-bH; test: two-hybrid library CCNG1
T31 chain: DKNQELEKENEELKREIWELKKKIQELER

[32] = target: T32, 4H2839-bH; test: two-hybrid library CCNG1
T32 chain: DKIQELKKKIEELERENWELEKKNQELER

[33] = target: T33, 4H741-bH; test: two-hybrid library CCNG1
T33 chain: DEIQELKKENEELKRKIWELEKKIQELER

[34] = target: T34, 4H492-bH; test: two-hybrid library CCNG1
T34 chain: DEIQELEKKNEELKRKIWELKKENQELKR

[35] = target: T35, 4H2915-bH; test: two-hybrid library CCNG1
T35 chain: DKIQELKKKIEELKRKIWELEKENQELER

[36] = target: T36, 4H2588-bH; test: two-hybrid library CCNG1
T36 chain: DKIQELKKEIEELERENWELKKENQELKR

[37] = target: T37, 4H3057-bH; test: two-hybrid library CCNG1
T37 chain: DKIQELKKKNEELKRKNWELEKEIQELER

[38] = target: T38, 4H348-bH; test: two-hybrid library CCNG1
T38 chain: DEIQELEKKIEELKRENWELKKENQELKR

[39] = target: T39, 4H40-bH; test: two-hybrid library CCNG1
T39 chain: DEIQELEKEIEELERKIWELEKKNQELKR

[40] = target: T40, 4H477-bH; test: two-hybrid library CCNG1
T40 chain: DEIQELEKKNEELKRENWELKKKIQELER

[41] = target: T41, 4H2585-bH; test: two-hybrid library CCNG1
T41 chain: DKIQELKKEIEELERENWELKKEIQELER

[42] = target: T42, 4H319-bH; test: two-hybrid library CCNG1
T42 chain: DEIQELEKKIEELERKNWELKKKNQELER

[43] = target: T43, 4H_APH; test: two-hybrid library CCmax; settings: mean of both orientations
T43 chain: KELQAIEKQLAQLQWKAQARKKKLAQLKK

[44] = target: T44, 4H535-AA; test: two-hybrid library CCmax; settings: mean of both orientations
T44 chain: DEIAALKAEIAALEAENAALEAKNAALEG

[45] = target: T45, 4H_BCR; test: two-hybrid library CCmax; settings: mean of both orientations
T45 chain: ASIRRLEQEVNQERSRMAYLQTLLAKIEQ

[46] = target: T46, 4H3020-AA; test: two-hybrid library CCmax; settings: mean of both orientations
T46 chain: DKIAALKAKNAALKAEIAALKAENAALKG

[47] = target: T47, 4H3365-AA; test: two-hybrid library CCmax; settings: mean of both orientations
T47 chain: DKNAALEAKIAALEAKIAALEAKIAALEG

[48] = target: T48, 4H2898-AA; test: two-hybrid library CCmax
T48 chain: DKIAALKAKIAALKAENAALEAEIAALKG

[49] = target: T49, 4H58-AA; test: two-hybrid library CCmax; settings: mean of both orientations
T49 chain: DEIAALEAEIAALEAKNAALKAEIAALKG

[50] = target: T50, 4H486-AA; test: two-hybrid library CCmax; settings: mean of both orientations
T50 chain: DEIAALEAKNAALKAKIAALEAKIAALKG

[51] = target: T51, 4H895-AA; test: two-hybrid library CCmax; settings: mean of both orientations
T51 chain: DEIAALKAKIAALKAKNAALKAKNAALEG

[52] = target: T52, 4H3782-AA; test: two-hybrid library CCmax; settings: mean of both orientations
T52 chain: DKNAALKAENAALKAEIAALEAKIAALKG

[53] = target: GCN2_T; test: two-hybrid library CCmax
[54] = target: T53, 4H355-AA; test: two-hybrid library CCmax; settings: mean of both orientations
T53 chain: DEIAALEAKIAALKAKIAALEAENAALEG

[55] = target: T54, 4H465-AA; test: two-hybrid library CCmax; settings: mean of both orientations
T54 chain: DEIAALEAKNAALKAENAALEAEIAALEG

[56] = target: T55, 4H3651-AA; test: two-hybrid library CCmax; settings: mean of both orientations
T55 chain: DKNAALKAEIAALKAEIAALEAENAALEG

[57] = target: 4H_GCN4; test: two-hybrid library CCmax; settings: mean of both orientations
[58] = target: T56, 4H3705-AA; test: two-hybrid library CCmax; settings: mean of both orientations
T56 chain: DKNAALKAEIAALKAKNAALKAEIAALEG

Sequence of 4H_GCN4 (chain, as listed by the source): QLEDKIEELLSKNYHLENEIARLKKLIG

B1: 4H146-AA (peptide)
chain: DEIAALEAENAALEAENAALEAEIAALKG
B1 was tested, and the interaction score [1] was -1.28, the interaction score [2] was -1.69 and the interaction score [3] was 0.785. The interaction score [4] was -1.75, the interaction score [5] was 0.134 and the interaction score [6] was -1.8. The interaction score [7] was -1.52, the interaction score [8] was -1.76 and the interaction score [9] was 0.457. The interaction score [10] was -1.45, the interaction score [11] was -1.48 and the interaction score [12] was -0.0632. The interaction score [13] was -1.02, the interaction score [14] was -1.8 and the interaction score [15] was 0.786. For the same binder, the interaction score [16] was -1.69, the interaction score [17] was 1.98 and the interaction score [18] was 1.92. It also gave an interaction score [19] of -2.03, an interaction score [20] of -0.675 and an interaction score [21] of -0.984. It also gave an interaction score [22] of -0.572, an interaction score [23] of -1.68 and an interaction score [24] of 0.586. For the same binder, the interaction score [25] was 1.2, the interaction score [26] was 2.06 and the interaction score [27] was -0.199. For the same binder, the interaction score [28] was -0.477.

B2: 4H2503-bH (peptide)
chain: DKIQELEKKNEELKREIWELEKKNQELER
With B2 the interaction score [29] was -0.106, the interaction score [30] was 0.839 and the interaction score [31] was -0.644. For the same binder, the interaction score [32] was 0.527, the interaction score [33] was 0.303 and the interaction score [34] was -0.241. It also gave an interaction score [35] of 0.0935, an interaction score [36] of -0.858 and an interaction score [37] of 0.435. It also gave an interaction score [38] of -0.941, an interaction score [39] of -2.05 and an interaction score [40] of -0.993. It also gave an interaction score [41] of -1.1 and an interaction score [42] of -0.903.

B3: 4H2898-AA (peptide)
chain: DKIAALKAKIAALKAENAALEAEIAALKG
With B3 the interaction score [43] was -1.54, the interaction score [44] was 0.142 and the interaction score [45] was 0.271. The interaction score [46] was -0.301, the interaction score [47] was -1.78 and the interaction score [48] was 0.588. It also gave an interaction score [49] of 2.06, an interaction score [50] of 1.49 and an interaction score [51] of -0.62. For the same binder, the interaction score [52] was -1.39, the interaction score [53] was -0.0478 and the interaction score [54] was 0.0321. For the same binder, the interaction score [55] was -1.49, the interaction score [56] was -0.71 and the interaction score [57] was -0.672. It also gave an interaction score [58] of 1.04.
